Broadly, the Kd is the concentration at which binding is half-saturated.

The values that follow come from paper PMC8927147, “Global profiling of regulatory elements in the histone benzoylation pathway” (Nature Communications, 2022).

The target in test [1] is H3K9ac peptide (Saccharomyces cerevisiae) (UniProt P61830). The following applies: cited from earlier work.
The target in test [2] is H3K9cr peptide (Saccharomyces cerevisiae) (UniProt P61830). The following applies: cited from earlier work.
Test [3] has as its target H3K14ac peptide (Saccharomyces cerevisiae) (UniProt P61830). The following applies: cited from earlier work.
In test [4] the target is Sth1BD (S. cerevisiae) (UniProt P32597). Briefly: ITC; MicroCal ITC200, 20 °C, 25 mM Tris-HCl pH 8.0, 150 mM NaCl; peptides at 2.0 mM in the syringe titrated into reader domain at 0.1-0.2 mM in the cell; one-binding-site model.
Sth1BD (S. cerevisiae), sequence (P32597 1248-1359): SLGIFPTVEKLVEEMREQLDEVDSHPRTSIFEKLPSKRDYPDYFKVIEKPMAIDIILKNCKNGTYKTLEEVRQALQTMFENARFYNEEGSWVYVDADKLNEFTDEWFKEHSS

Taf14 YEATS, sequence (P35189 1-137): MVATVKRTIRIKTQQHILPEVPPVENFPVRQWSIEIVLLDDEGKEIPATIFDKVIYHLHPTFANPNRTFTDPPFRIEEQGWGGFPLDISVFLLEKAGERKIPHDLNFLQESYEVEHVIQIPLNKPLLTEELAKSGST
Sth1 Bromodomain, sequence (P32597 1254-1359): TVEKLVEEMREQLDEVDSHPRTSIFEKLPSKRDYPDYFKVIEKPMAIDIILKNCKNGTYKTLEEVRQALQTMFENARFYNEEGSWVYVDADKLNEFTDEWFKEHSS

Turning to Taf14 YEATS (from UniProt P35189), the Kd in test [1] is 334 µM; in test [2] it was 75 µM. On to Sth1 Bromodomain (from UniProt P32597), for which, in test [3], the Kd is 16 µM.

As for H3K14bz peptide, the Kd in test [4] came to 89 µM.
